Experimental data from patent US20260242478A1 (published 2026).
Where no end group is shown, it is not given here.

Assays:
PSMA Fab [1] = biological target: T1, PSMA Fab (biotinylated (site not stated)); assay: clonal phage ELISA on biotinylated PSMA Fab captured on neutravidin plates, anti-M13-HRP detection;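 note: crude clonal phage supernatants added to wells preincubated with PSMA antigen or with blocking buffer only (no wash between), briefly incubated, then washed before detecting bound phage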
T1 construct: Biotinylated PSMA Fab captured on neutravidin coated plates in the phage ELISA; also called anti-PSMA Fab; 006 PSMA Fab

PSMA Fab [2] = biological target: T1, PSMA Fab; assay: clonal phage ELISA on captured PSMA Fab pre-incubated with PSMA antigen as competitor, anti-M13-HRP detection;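 note: wells blocked with buffer plus PSMA antigen before phage addition, with blocking buffer alone as the no-competitor control, bound phage detected after washing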
Description: (§1) Clonal phage were harvested as crude supernatants and screened via standard ELISAs. […] Prior to the addition of clonal phage. wells were incubated with blocking buffer and PSMA antigen or blocking buffer alone. Without washing or aspirating, clonal phage supernatants were then added to the wells and incubated for a short time. Wells were then washed followed by detection of bound phage using a horse radish conjugated anti-M13 antibody.

PSMA Fab [3] = biological target: T2, PSMA Fab; assay: clonal phage ELISA; biotinylated PSMA Fab on neutravidin plate, blocking buffer alone; anti-M13 HRP detection;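 note: crude clonal phage supernatants added without washing to wells pretreated with blocking buffer with or without PSMA antigen, short incubation, then washed before detecting bound phage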
T2 construct: also called Anti-PSMA Fab; 006 PSMA Fab
Description: as §1

PSMA Fab [4] = biological target: T2, PSMA Fab; assay: clonal phage ELISA; biotinylated PSMA Fab on neutravidin plate, pre-incubated with PSMA antigen as competitor; anti-M13 HRP detection
Description: as §1

PSMA Fab (006 PSMA Fab) [5] = biological target: T3, PSMA Fab (006 PSMA Fab) (biotinylated (site not stated)); assay: clonal phage ELISA on captured anti-PSMA Fab pre-incubated with PSMA antigen (competitor: PSMA)
T3 construct: That the same Fab was used in the panning ELISA is inferred; also called Anti-PSMA Fab; anti-PSMA Fab

PSMA Fab (006 PSMA Fab) [6] = biological target: T3, PSMA Fab (006 PSMA Fab); assay: clonal phage ELISA on biotinylated anti-PSMA Fab captured on neutravidin, anti-M13-HRP detection
Description: as §1

PSMA Fab (006 PSMA Fab) [7] = biological target: T4, PSMA Fab (006 PSMA Fab) (biotinylated (site not stated)); assay: clonal phage ELISA on captured PSMA Fab pre-incubated with PSMA antigen as competitor;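 note: crude clonal phage supernatants added to wells without washing away the PSMA competitor, bound phage detected by HRP-conjugated anti-M13 antibody, reference wells received blocking buffer only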
T4 construct: In the clonal phage ELISA the biotinylated PSMA Fab was captured on neutravidin coated plates; also called Anti-PSMA Fab

PSMA Fab (006 PSMA Fab) [8] = biological target: T4, PSMA Fab (006 PSMA Fab); assay: clonal phage ELISA on biotinylated PSMA Fab captured on neutravidin, anti-M13 HRP detection, no PSMA
Description: as §1

| Binder | Phage binding ELISA signal, Anti-PSMA Fab (PSMA Fab [1]) | Phage binding ELISA signal, Anti-PSMA Fab with PSMA antigen (PSMA Fab [2]) | Phage binding ELISA signal, Anti-PSMA Fab (PSMA Fab [3]) | Phage binding ELISA signal, Anti-PSMA Fab with PSMA antigen (PSMA Fab [4]) | phage binding ELISA signal in the presence of PSMA (PSMA Fab (006 PSMA Fab) [5]) | phage binding ELISA signal (PSMA Fab (006 PSMA Fab) [6]) | further results |
| --- | --- | --- | --- | --- | --- | --- | --- |
| IEAVCKPSWMCAGF (cysteine pairing not given here; also: fused to pIII of bacteriophage) [Phage-3391] | 1.8 | 0.0703 | – | – | – | – | – |
| SEILCRPAWMCTGF [Phage-3407] | – | – | 1.79 | 0.104 | – | – | – |
| EDILCKPVWMCIGF (Peptide-180 library clone, tested as clonal phage supernatant; not shown: fused to the pIII filament protein of the bacteriophage) [Phage-3431] | – | – | – | – | 0.06 | 1.77 | – |
| SLPICKPEWMCVGL (Peptide-180 library clone, tested as clonal phage supernatant; not shown: fused to the pIII filament protein of the bacteriophage) [Phage-3429] | – | – | – | – | 0.0892 | 1.77 | – |
| DVRLCRPSWMCSGF [Phage-3378] | 1.81 | 0.0682 | – | – | – | – | – |
| NGALCKPVWMCQGF [Phage-3383] | 1.81 | 0.0702 | – | – | – | – | – |
| SFLRCEPMWMCLGF (Peptide-180 library clone, tested as clonal phage supernatant; not shown: fused to the pIII filament protein of the bacteriophage) [Phage-3432] | – | – | – | – | 0.0816 | 1.77 | – |
| MQMMCKPDWMCEGF [Phage-3388] | 1.8 | 0.0755 | – | – | – | – | – |
| VERACRPVWMCQGF [Phage-3417] | – | – | 1.78 | 0.0907 | – | – | – |
| QGTLCVPSWMCSGF [Phage-3390] | 1.8 | 0.0523 | – | – | – | – | – |
| IMPTCVPQWMCNGF [Phage-3418] | – | – | 1.78 | 0.093 | – | – | – |
| ELVRCIPVWMCQGF [Phage-3412] | – | – | 1.79 | 0.368 | – | – | – |
| AQGVCIPQWMCDGF (cysteine pairing not given here; also: fused to pIII of bacteriophage) [Phage-3406] | – | – | 1.79 | 0.0715 | – | – | – |
| HDLRCVPEWMCYGL [Phage-3377] | – | – | – | – | – | – | Phage binding ELISA signal, Anti-PSMA Fab with PSMA antigen (PSMA Fab (006 PSMA Fab) [7]): 0.0734; Phage binding ELISA signal, Anti-PSMA Fab (PSMA Fab (006 PSMA Fab) [8]): 1.81 |
| VEPLCRPMWMCEGI [Phage-3410] | – | – | 1.79 | 0.122 | – | – | – |
| ILPQCVPSWMCEGF [Phage-3385] | 1.81 | 0.106 | – | – | – | – | – |
| MTPRCIPSWMCFGM (Peptide-180 library clone, tested as clonal phage supernatant; not shown: fused to the pIII filament protein of the bacteriophage) [Phage-3426] | – | – | – | – | 0.086 | 1.77 | – |
| TSLRCVPEWMCSGF (Peptide-180 library clone, tested as clonal phage supernatant; not shown: fused to the pIII filament protein of the bacteriophage) [Phage-3428] | – | – | – | – | 0.0814 | 1.77 | – |
| FSVRCVPEWMCAGF (cysteine pairing not given here; also: fused to pIII of bacteriophage) [Phage-3387] | 1.8 | 0.0701 | – | – | – | – | – |
| VEPLCRPFWMCVGF [Phage-3382] | 1.81 | 0.127 | – | – | – | – | – |
| SSMLCIPTWMCGGF (Peptide-180 library clone, tested as clonal phage supernatant; not shown: fused to the pIII filament protein of the bacteriophage) [Phage-3427] | – | – | – | – | 0.0536 | 1.77 | – |

| Binder | Phage binding ELISA signal, Anti-PSMA Fab (PSMA Fab [1]) | Phage binding ELISA signal, Anti-PSMA Fab with PSMA antigen (PSMA Fab [2]) | Phage binding ELISA signal, Anti-PSMA Fab (PSMA Fab [3]) | Phage binding ELISA signal, Anti-PSMA Fab with PSMA antigen (PSMA Fab [4]) | phage binding ELISA signal in the presence of PSMA (PSMA Fab (006 PSMA Fab) [5]) | phage binding ELISA signal (PSMA Fab (006 PSMA Fab) [6]) | further results |
| --- | --- | --- | --- | --- | --- | --- | --- |
| TDPLCIPEWMCQGM (Peptide-180 library clone, tested as clonal phage supernatant; not shown: fused to the pIII filament protein of the bacteriophage) [Phage-3421] | – | – | – | – | 0.0726 | 1.78 | – |
| MLPYCVPQWMCMGF [Phage-3419] | – | – | 1.78 | 0.147 | – | – | – |
| QVPMCKPMWMCAGF (cysteine pairing not given here; also: fused to pIII of bacteriophage) [Phage-3379] | 1.81 | 0.0921 | – | – | – | – | – |
| DFVRCVPDWMCQGF [Phage-3414] | – | – | 1.79 | 0.0627 | – | – | – |
| SLAQCVPEWMCFGF [Phage-3411] | – | – | 1.79 | 0.113 | – | – | – |
| YFQMCAPRWMCEGF (cysteine pairing not given here; also: fused to pIII of bacteriophage, Peptide-180 library clone, tested as clonal phage supernatant; not shown: fused to the pIII filament protein of the bacteriophage) [Phage-3423] | – | – | – | – | 0.0849 | 1.78 | – |
| SVKVCKPAWMCAGF (cysteine pairing not given here; also: fused to pIII of bacteriophage) [Phage-3413] | – | – | 1.79 | 0.102 | – | – | – |
| FTALCKPMWMCRGF [Phage-3386] | 1.81 | 0.0718 | – | – | – | – | – |
| AEVRCVPQWMCFGL [Phage-3380] | 1.81 | 0.0952 | – | – | – | – | – |
| METWCVPTWMCTGF [Phage-3415] | – | – | 1.79 | 0.0748 | – | – | – |
| LEVHCRPSWMCVGF [Phage-3384] | 1.81 | 0.062 | – | – | – | – | – |
| DTWICKPEWMCMGF [Phage-3416] | – | – | 1.78 | 0.0802 | – | – | – |
| DTFMCRPSWMCNGF [Phage-3409] | – | – | 1.79 | 0.072 | – | – | – |
| EMRYCVPRWMCEGF [Phage-3381] | 1.81 | 0.095 | – | – | – | – | – |
| LEIMCRPEWMCSGF (Peptide-180 library clone, tested as clonal phage supernatant; not shown: fused to the pIII filament protein of the bacteriophage) [Phage-3425] | – | – | – | – | 0.0888 | 1.77 | – |
| IGAMCEPKWMCFGF (cysteine pairing not given here; also: fused to pIII of bacteriophage) [Phage-3389] | 1.8 | 0.118 | – | – | – | – | – |
| NDVKCIPEWMCVGF (Peptide-180 library clone, tested as clonal phage supernatant; not shown: fused to the pIII filament protein of the bacteriophage) [Phage-3420] | – | – | – | – | 0.0849 | 1.78 | – |
| LSTLCIPQWMCTGL (Peptide-180 library clone, tested as clonal phage supernatant; not shown: fused to the pIII filament protein of the bacteriophage) [Phage-3422] | – | – | – | – | 0.0813 | 1.78 | – |
| IDQICKPAWMCSGF (Peptide-180 library clone, tested as clonal phage supernatant; not shown: fused to the pIII filament protein of the bacteriophage) [Phage-3424] | – | – | – | – | 0.0628 | 1.78 | – |
| GDHYCKPDWMCSGF [Phage-3408] | – | – | 1.79 | 0.071 | – | – | – |
| VEKMCKPVWMCNGF (Peptide-180 library clone, tested as clonal phage supernatant; not shown: fused to the pIII filament protein of the bacteriophage) [Phage-3430] | – | – | – | – | 0.115 | 1.77 | – |
